Laboratory results from patent US10683329B2, “Dual-site BACE1 inhibitors” (priority 2014, dated 2020).
*1 amine or outer side, *2 acyl side, *3 side chain or, on linkers, in order; H or OH if unused. Where no end group is shown, it is not given here. [ ]: non-standard residue; d: D form. The star is where a group is joined. Chol‑27‑TFA‑ester = succinamic acid (3S,8S,9S,10R,13R,14S,17R)-17-[(1R,5R)-1,5-dimethyl-6-(2,2,2-trifluoro-acetoxy)-hexyl]-10,13-dimethyl-2,3,4,7,8,9,10,11,12,13,14,15,16,17-tetradecahydro-1H-cyclopenta[a]phenanthren-3-yl ester, C[C@H](CCC[C@@H](C)[C@H]1CC[C@H]2[C@@H]3CC=C4C[C@@H](OC(=O)CCC(=O)*)CC[C@]4(C)[C@H]3CC[C@]12C)COC(=O)C(F)(F)F; MetSta(3S,4S) = CSCC[C@H](N[*:1])[C@@H](O)CC(=O)[*:2]; Sta = CC(C)C[C@H](N)[C@@H](O)CC(=O)O; 27‑OH‑Chol = 27-hydroxycholesterol; PEG4 = NCCOCCOCCOCCOCCC(=O)O; Lauroyl = CCCCCCCCCCCC(=O)*; PEG3 = NCCOCCOCCOCCC(=O)O; Aun = NCCCCCCCCCCC(=O)O; Ahx = NCCCCCC(=O)O

Target: BACE1 enzyme (UniProt P56817 46-501, limits assumed)
Experiment: cell-based or functional assay

BACE1 enzyme, sequence (P56817 46-501 limits assumed): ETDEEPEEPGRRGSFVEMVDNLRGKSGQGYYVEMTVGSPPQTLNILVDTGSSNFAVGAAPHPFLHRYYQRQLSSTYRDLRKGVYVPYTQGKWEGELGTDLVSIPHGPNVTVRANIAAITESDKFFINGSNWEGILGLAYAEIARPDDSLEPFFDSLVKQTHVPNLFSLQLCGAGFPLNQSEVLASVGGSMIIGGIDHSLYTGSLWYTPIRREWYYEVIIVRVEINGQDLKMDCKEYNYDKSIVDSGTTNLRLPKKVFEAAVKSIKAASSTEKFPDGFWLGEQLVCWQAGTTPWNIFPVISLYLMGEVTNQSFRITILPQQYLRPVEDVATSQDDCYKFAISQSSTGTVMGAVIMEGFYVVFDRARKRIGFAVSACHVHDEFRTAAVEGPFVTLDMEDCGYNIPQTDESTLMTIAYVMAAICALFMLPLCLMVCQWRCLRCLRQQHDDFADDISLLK

Binder	IC50, cellular Aβ-lowering assay (Aβ40 in supernatant of HEK293 cells expressing human APP695) [nM]
YPYFIPLGGKEVN[Sta]VAE[dP]K(Chol)-NH2 (also: 2TFA salt) [Tyr-Pro-Tyr-Phe-Ile-Pro-Leu-Gly-Gly-Lys-Glu-Val-Asn-Sta-Val-Ala-Glu-DPro-Lys(Chol)-NH2 x 2TFA]	0.0771
YPYFIPL[PEG3]EVN[Sta]VAE[dP]K(Chol)-NH2 (also: TFA salt) [Tyr-Pro-Tyr-Phe-Ile-Pro-Leu-PEG(3)-Glu-Val-Asn-Sta-Val-Ala-Glu-DPro-Lys(Chol)-NH2 x TFA]	0.043
YPYFIPLGGEVN[Sta]VAE[dP]K(Chol)-NH2 (also: x TFA salt) [Tyr-Pro-Tyr-Phe-Ile-Pro-Leu-Gly-Gly-Glu-Val-Asn-Sta-Val-Ala-Glu-DPro-Lys(Chol)-NH2 x TFA]	0.27
Ac-YPYFIPLGGGEVN[Sta]VAE[dP]K(Chol)-NH2 (also: x TFA salt) [Ac-Tyr-Pro-Tyr-Phe-Ile-Pro-Leu-Gly-Gly-Gly-Glu-Val-Asn-Sta-Val-Ala-Glu-DPro-Lys(Chol)-NH2]	0.017
YPYFIKL[PEG4]EVN[Sta]VAE[dP]K(Chol)-NH2 (numbers in words are those of the source; also: x 2TFA salt) [Tyr-Pro-Tyr-Phe-Ile-Lys-Leu-PEG(4)-Glu-Val-Asn-Sta-Val-Ala-Glu-DPro-Lys(Chol)-NH2 x 2TFA]	0.0228
YPYFIPLGGGEVN[Sta]VAE[dP]K(Lauroyl)-NH2 (also: x TFA salt) [Tyr-Pro-Tyr-Phe-Ile-Pro-Leu-Gly-Gly-Gly-Glu-Val-Asn-Sta-Val-Ala-Glu-DPro-Lys(C12)-NH2 x TFA]	450
YPYFIPLGGGEVN[Sta]VAE[dP]K(Chol‑27‑TFA‑ester)-NH2 (also: x TFA salt)	5.2
YPYFKPL[PEG4]EVN[Sta]VAE[dP]K(Chol)-NH2 (numbers in words are those of the source; also: 2TFA salt) [Tyr-Pro-Tyr-Phe-Lys-Pro-Leu-PEG(4)-Glu-Val-Asn-Sta-Val-Ala-Glu-DPro-Lys(Chol)-NH2 x 2TFA]	0.0235
YPYFIPL[dK]GGEVN[Sta]VAE[dP]K(Chol)-NH2 (also: x 2TFA salt) [Tyr-Pro-Tyr-Phe-Ile-Pro-Leu-DLys-Gly-Gly-Glu-Val-Asn-Sta-Val-Ala-Glu-DPro-Lys(Chol)-NH2 x 2TFA]	0.177
YPYFKPLGGGEVN[Sta]VAE[dP]K(Chol)-NH2 (also: 2TFA salt) [Tyr-Pro-Tyr-Phe-Lys-Pro-Leu-Gly-Gly-Gly-Glu-Val-Asn-Sta-Val-Ala-Glu-DPro-Lys(Chol)-NH2 x 2TFA]	0.00732
YPYFIPLGGGEVN[Sta]DAE[dP]K(Chol)-NH2 (also: x TFA salt) [Tyr-Pro-Tyr-Phe-Ile-Pro-Leu-Gly-Gly-Gly-Glu-Val-Asn-Sta-Asp-Ala-Glu-DPro-Lys(Chol)-NH2 x TFA]	18
YPYFIPLGG[dK]EVN[Sta]VAE[dP]K(Chol)-NH2 (also: x 2TFA salt) [Tyr-Pro-Tyr-Phe-Ile-Pro-Leu-Gly-Gly-DLys-Glu-Val-Asn-Sta-Val-Ala-Glu-DPro-Lys(Chol)-NH2 x 2TFA]	0.118
YPYFIPLGGGGGGEVN[Sta]VAE[dP]K(Chol)-NH2 (also: TFA salt)	0.028
YPYFIPLGGGEVN[Sta]VAE[dP]K(C14)-NH2 (also: x TFA salt) [Tyr-Pro-Tyr-Phe-Ile-Pro-Leu-Gly-Gly-Gly-Glu-Val-Asn-Sta-Val-Ala-Glu-DPro-Lys(C14)-NH2 x TFA]	140
YPYFIPLGKGEVN[Sta]VAE[dP]K(Chol)-NH2 (also: 2TFA salt) [Tyr-Pro-Tyr-Phe-Ile-Pro-Leu-Gly-Lys-Gly-Glu-Val-Asn-Sta-Val-Ala-Glu-DPro-Lys(Chol)-NH2 x 2TFA]	0.0295
YPYFIPLGGGEVN[Sta]VAE[dP]K(27‑OH‑Chol)-NH2 (also: x TFA salt) [Tyr-Pro-Tyr-Phe-Ile-Pro-Leu-Gly-Gly-Gly-Glu-Val-Asn-Sta-Val-Ala-Glu-DPro-Lys(27-OH-Chol)-NH2 x TFA]	6.3
LIYFPYPGGGGEVN[Sta]VAE[dP]K(Chol)-NH2 (also: x TFA salt) [Leu-Ile-Tyr-Phe-Pro-Tyr-Pro-Gly-Gly-Gly-Gly-Glu-Val-Asn-Sta-Val-Ala-Glu-DPro-Lys(Chol)-NH2 x TFA]	0.28
YPYFIPL[PEG4]EVN[MetSta(3S,4S)]VAE[dF]K(Chol)-NH2 (also: TFA salt) [Tyr-Pro-Tyr-Phe-Ile-Pro-Leu-PEG(4)-Glu-Val-Asn-MetSta-Val-Ala-Glu-DPhe-Lys(Chol)-NH2 x TFA]	0.018
YPYFIPLKGGEVN[Sta]VAE[dP]K(Chol)-NH2 (also: 2TFA salt) [Tyr-Pro-Tyr-Phe-Ile-Pro-Leu-Lys-Gly-Gly-Glu-Val-Asn-Sta-Val-Ala-Glu-DPro-Lys(Chol)-NH2 x 2TFA]	0.0235
YPYFIKLGGGEVN[Sta]VAE[dP]K(Chol)-NH2 (also: x 2TFA salt) [Tyr-Pro-Tyr-Phe-Ile-Lys-Leu-Gly-Gly-Gly-Glu-Val-Asn-Sta-Val-Ala-Glu-DPro-Lys(Chol)-NH2 x 2TFA]	0.0117
YPKFIPLG[dK]GEVN[Sta]VAE[dP]K(Chol)-NH2 (also: x 3TFA salt) [Tyr-Pro-Lys-Phe-Ile-Pro-Leu-Gly-DLys-Gly-Glu-Val-Asn-Sta-Val-Ala-Glu-DPro-Lys(Chol)-NH2 x 3TFA]	0.0203

Binder	IC50, cellular Aβ-lowering assay (Aβ40 in supernatant of HEK293 cells expressing human APP695) [nM]
Ac-YPYFIPL[PEG4]EVN[Sta]VAE[dP]K(Chol)-NH2 [Ac-Tyr-Pro-Tyr-Phe-Ile-Pro-Leu-PEG(4)-Glu-Val-Asn-Sta-Val-Ala-Glu-DPro-Lys(Chol)-NH2]	0.041
YPYFIPLGGGEVN[Sta]VAE[dP]K(Chol)-NH2 (also: x TFA salt) [Tyr-Pro-Tyr-Phe-Ile-Pro-Leu-Gly-Gly-Gly-Glu-Val-Asn-Sta-Val-Ala-Glu-DPro-Lys(Chol)-NH2 x TFA]	0.027
YPYFKPLG[dK]GEVN[Sta]VAE[dP]K(Chol)-NH2 (also: 3TFA salt) [Tyr-Pro-Tyr-Phe-Lys-Pro-Leu-Gly-DLys-Gly-Glu-Val-Asn-Sta-Val-Ala-Glu-DPro-Lys(Chol)-NH2 x 3TFA]	0.0263
YPKFIPLG[dK]GEVN[Sta]VAE[dP]K(Chol'ether')-NH2 (also: x 3TFA salt)	0.00828
YPYFIPLGGGGGEVNXVAEFK (MetSta at 16; DPhe at 20; Lys(Chol) at 21; C-terminal NH2)	0.07
YPKFKPLG[dK]GEVN[Sta]VAE[dP]K(Chol)-NH2 (also: x 4TFA salt) [Tyr-Pro-Lys-Phe-Lys-Pro-Leu-Gly-DLys-Gly-Glu-Val-Asn-Sta-Val-Ala-Glu-DPro-Lys(Chol)-NH2 x 4TFA]	0.0218
YPYFIPL[Aun]EVN[Sta]VAE[dP]K(Chol)-NH2 (also: TFA salt) [Tyr-Pro-Tyr-Phe-Ile-Pro-Leu-NH(CH2)10CO-Glu-Val-Asn-Sta-Val-Ala-Glu-DPro-Lys(Chol)-NH2 x TFA]	0.36
YPYFIPLGGGEVN[MetSta(3S,4S)]VAE[dF]K(C14)-NH2 (also: x TFA salt) [Tyr-Pro-Tyr-Phe-Ile-Pro-Leu-Gly-Gly-Gly-Glu-Val-Asn-MetSta-Val-Ala-Glu-DPhe-Lys(C14)-NH2 x TFA]	1260
YPYFIPLGGGEVN[Sta]VAEFK(Chol)-NH2 (also: x TFA salt) [Tyr-Pro-Tyr-Phe-Ile-Pro-Leu-Gly-Gly-Gly-Glu-Val-Asn-Sta-Val-Ala-Glu-Phe-Lys(Chol)-NH2 x TFA]	0.19
YPYFIPL[Ahx]EVN[Sta]VAE[dP]K(Chol)-NH2 (also: TFA salt) [Tyr-Pro-Tyr-Phe-Ile-Pro-Leu-NH(CH2)5CO-Glu-Val-Asn-Sta-Val-Ala-Glu-DPro-Lys(Chol)-NH2 x TFA]	0.075
YPYFIPL[PEG3]EVN[MetSta(3S,4S)]VAE[dF]K(Chol)-NH2 (also: TFA salt) [Tyr-Pro-Tyr-Phe-Ile-Pro-Leu-PEG(3)-Glu-Val-Asn-MetSta-Val-Ala-Glu-DPhe-Lys(Chol)-NH2 x TFA]	0.036
KPYFIPLG[dK]GEVN[Sta]VAE[dP]K(Chol'ester')-NH2 (also: x 3TFA salt)	0.02
YPYFIKLG[dK]GEVN[Sta]VAE[dP]K(Chol)-NH2 (also: x 3TFA salt) [Tyr-Pro-Tyr-Phe-Ile-Lys-Leu-Gly-DLys-Gly-Glu-Val-Asn-Sta-Val-Ala-Glu-DPro-Lys(Chol)-NH2 x 3TFA]	0.0176
YPYFIPLG[dK]GEVN[Sta]VAE[dP]K(Chol'ester')-NH2 (also: x 2TFA salt)	0.025
YPYFIPLGGGGEVNXVAEFK (MetSta at 15; DPhe at 19; Lys(Chol) at 20; C-terminal NH2) [Tyr-Pro-Tyr-Phe-Ile-Pro-Leu-Gly-Gly-Gly-Gly-Glu-Val-Asn-MetSta-Val-Ala-Glu-DPhe-Lys(Chol)-NH2 x TFA]	0.052
YPYFIPLGGGEVNLAAE[dP]K(Chol)-NH2 (also: Leu14*Ala15 Tang hydroxyethylene dipeptide isostere, trifluoroacetate salt) [Tyr-Pro-Tyr-Phe-Ile-Pro-Leu-Gly-Gly-Gly-Glu-Val-Asn-Leu*Ala-Ala-Glu-DPro-Lys(Chol)-NH2 x TFA]	0.0024
LIYFPYPGGGEVN[Sta]VAE[dP]K(Chol)-NH2 (also: x TFA salt) [Leu-Ile-Tyr-Phe-Pro-Tyr-Pro-Gly-Gly-Gly-Glu-Val-Asn-Sta-Val-Ala-Glu-DPro-Lys(Chol)-NH2 x TFA]	0.22
YPYFIPL[PEG4]EVN[Sta]VAE[dP]K(Chol)-NH2 (also: TFA salt) [Tyr-Pro-Tyr-Phe-Ile-Pro-Leu-PEG(4)-Glu-Val-Asn-Sta-Val-Ala-Glu-DPro-Lys(Chol)-NH2 x TFA]	0.027
YPKFIPLGGGEVN[Sta]VAE[dP]K(Chol)-NH2 (also: x 2TFA salt) [Tyr-Pro-Lys-Phe-Ile-Pro-Leu-Gly-Gly-Gly-Glu-Val-Asn-Sta-Val-Ala-Glu-DPro-Lys(Chol)-NH2 x 2TFA]	0.0135
YPYFIPLGGGEVN[Sta]VAE[dP]K(Chol'ether')-NH2 (also: x TFA salt) [Tyr-Pro-Tyr-Phe-Ile-Pro-Leu-Gly-Gly-Gly-Glu-Val-Asn-Sta-Val-Ala-Glu-DPro-Lys(Chol'ether')-NH2 x TFA]	0.0264
